Experiment in all cases: Kd (EC50 corrected by depletion factor)
One series concerns the target T1, SF3B3 (UniProt Q15393).
T1 sequence: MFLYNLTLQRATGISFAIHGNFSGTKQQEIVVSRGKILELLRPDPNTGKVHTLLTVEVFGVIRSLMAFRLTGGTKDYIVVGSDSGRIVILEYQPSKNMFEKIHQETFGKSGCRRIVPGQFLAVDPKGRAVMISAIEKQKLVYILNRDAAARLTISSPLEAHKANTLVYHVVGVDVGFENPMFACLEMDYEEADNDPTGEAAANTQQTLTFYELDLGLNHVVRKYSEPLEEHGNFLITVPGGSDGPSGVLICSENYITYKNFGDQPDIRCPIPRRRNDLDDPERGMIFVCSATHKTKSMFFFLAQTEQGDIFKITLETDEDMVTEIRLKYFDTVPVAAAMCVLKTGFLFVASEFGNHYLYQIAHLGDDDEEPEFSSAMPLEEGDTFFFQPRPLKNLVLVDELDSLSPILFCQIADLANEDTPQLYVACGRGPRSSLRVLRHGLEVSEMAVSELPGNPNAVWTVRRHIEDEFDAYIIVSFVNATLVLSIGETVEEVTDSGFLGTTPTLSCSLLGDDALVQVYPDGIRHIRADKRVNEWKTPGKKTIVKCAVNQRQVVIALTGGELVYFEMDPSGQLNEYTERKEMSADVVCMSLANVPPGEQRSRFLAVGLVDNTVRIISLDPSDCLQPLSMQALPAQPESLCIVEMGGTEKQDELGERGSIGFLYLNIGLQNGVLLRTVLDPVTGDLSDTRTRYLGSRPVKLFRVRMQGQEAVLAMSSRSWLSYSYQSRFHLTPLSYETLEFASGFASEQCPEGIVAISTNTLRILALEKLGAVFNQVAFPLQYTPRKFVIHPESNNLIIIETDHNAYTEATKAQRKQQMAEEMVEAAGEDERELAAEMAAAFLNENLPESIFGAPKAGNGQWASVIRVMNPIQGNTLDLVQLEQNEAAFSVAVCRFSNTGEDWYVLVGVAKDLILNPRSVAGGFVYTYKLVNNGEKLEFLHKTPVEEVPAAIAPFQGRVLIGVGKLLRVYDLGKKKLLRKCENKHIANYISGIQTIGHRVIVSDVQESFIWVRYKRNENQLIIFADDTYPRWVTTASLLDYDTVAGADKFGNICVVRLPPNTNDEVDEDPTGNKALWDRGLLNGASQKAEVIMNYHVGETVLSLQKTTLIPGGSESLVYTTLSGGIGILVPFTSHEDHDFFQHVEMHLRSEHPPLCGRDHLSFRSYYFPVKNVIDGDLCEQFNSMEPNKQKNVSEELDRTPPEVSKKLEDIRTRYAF
In a few lines: (§1)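 HEK293-FT lysate (2.5 mg protein/well) was pre-incubated 1 h at 4°C with free RNA oligos (0 nM to 30 μM), then 30 min at 4°C with the same 5′-amino-C6 oligos coupled to NHS-Sepharose beads. Bound proteins were quantified by label-free LC-MS/MS in three biological replicates and two independent experiments, and normalised to the water control. EC50 came from a four-parameter log-logistic fit; Kd is EC50 times a protein-dependent depletion factor.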

The target of the next series is PIP5K1A (UniProt Q99755). In a few lines: as §1
Sequence of PIP5K1A (Q99755 whole entry): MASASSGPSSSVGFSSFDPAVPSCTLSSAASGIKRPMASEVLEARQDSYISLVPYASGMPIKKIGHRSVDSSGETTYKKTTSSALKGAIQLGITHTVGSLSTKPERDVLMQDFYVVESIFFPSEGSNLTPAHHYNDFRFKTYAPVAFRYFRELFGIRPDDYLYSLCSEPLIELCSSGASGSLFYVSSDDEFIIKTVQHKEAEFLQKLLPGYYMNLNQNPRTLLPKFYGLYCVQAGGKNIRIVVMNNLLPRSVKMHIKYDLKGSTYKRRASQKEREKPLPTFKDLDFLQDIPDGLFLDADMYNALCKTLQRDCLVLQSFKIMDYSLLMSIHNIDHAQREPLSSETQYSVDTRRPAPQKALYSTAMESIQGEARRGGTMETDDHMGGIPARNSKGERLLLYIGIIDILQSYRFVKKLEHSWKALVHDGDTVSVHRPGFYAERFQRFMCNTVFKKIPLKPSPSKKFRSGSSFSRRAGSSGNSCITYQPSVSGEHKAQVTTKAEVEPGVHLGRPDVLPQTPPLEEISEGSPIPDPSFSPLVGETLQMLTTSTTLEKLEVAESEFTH
A further series addresses RPSA (UniProt P08865). A digest of the protocol:
as §1

A further series addresses T2, MYEF2 (UniProt Q9P2K5).
T2 sequence: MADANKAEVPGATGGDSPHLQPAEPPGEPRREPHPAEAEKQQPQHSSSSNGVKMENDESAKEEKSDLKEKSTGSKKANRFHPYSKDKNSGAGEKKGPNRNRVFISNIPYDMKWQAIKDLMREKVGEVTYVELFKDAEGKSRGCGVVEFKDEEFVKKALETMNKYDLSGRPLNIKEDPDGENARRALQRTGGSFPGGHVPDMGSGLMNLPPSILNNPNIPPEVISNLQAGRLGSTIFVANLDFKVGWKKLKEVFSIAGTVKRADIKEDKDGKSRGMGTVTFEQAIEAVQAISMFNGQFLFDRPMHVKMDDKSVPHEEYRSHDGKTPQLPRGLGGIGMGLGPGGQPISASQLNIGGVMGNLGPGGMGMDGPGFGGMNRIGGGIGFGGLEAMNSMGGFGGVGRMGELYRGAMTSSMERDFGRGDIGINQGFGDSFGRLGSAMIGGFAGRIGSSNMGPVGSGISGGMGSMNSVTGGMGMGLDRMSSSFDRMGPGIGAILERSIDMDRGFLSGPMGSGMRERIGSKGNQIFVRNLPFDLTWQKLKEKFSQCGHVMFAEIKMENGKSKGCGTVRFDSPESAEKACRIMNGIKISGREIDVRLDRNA
A digest of the protocol:
as §1

In another series the target is T3, PRPF4 (UniProt O43172).
T3 sequence: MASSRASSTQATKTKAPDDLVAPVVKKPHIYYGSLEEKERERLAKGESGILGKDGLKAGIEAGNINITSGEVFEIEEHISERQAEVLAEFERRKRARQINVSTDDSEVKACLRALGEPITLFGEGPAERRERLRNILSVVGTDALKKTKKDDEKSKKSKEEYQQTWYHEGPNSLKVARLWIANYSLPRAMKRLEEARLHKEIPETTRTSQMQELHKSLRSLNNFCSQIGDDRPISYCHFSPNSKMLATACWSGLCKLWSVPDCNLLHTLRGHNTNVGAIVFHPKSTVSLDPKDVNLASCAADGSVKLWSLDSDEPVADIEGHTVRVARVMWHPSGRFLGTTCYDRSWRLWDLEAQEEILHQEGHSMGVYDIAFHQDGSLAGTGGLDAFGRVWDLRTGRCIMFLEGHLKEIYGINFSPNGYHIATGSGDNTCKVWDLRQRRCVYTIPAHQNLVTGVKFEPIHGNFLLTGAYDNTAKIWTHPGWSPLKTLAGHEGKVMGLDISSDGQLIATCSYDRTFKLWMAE
In a few lines:
as §1

The target of another series is ZNFX1 (UniProt Q9P2E3). In a few lines:
as §1

Sequence of ZNFX1 (Q9P2E3 whole entry): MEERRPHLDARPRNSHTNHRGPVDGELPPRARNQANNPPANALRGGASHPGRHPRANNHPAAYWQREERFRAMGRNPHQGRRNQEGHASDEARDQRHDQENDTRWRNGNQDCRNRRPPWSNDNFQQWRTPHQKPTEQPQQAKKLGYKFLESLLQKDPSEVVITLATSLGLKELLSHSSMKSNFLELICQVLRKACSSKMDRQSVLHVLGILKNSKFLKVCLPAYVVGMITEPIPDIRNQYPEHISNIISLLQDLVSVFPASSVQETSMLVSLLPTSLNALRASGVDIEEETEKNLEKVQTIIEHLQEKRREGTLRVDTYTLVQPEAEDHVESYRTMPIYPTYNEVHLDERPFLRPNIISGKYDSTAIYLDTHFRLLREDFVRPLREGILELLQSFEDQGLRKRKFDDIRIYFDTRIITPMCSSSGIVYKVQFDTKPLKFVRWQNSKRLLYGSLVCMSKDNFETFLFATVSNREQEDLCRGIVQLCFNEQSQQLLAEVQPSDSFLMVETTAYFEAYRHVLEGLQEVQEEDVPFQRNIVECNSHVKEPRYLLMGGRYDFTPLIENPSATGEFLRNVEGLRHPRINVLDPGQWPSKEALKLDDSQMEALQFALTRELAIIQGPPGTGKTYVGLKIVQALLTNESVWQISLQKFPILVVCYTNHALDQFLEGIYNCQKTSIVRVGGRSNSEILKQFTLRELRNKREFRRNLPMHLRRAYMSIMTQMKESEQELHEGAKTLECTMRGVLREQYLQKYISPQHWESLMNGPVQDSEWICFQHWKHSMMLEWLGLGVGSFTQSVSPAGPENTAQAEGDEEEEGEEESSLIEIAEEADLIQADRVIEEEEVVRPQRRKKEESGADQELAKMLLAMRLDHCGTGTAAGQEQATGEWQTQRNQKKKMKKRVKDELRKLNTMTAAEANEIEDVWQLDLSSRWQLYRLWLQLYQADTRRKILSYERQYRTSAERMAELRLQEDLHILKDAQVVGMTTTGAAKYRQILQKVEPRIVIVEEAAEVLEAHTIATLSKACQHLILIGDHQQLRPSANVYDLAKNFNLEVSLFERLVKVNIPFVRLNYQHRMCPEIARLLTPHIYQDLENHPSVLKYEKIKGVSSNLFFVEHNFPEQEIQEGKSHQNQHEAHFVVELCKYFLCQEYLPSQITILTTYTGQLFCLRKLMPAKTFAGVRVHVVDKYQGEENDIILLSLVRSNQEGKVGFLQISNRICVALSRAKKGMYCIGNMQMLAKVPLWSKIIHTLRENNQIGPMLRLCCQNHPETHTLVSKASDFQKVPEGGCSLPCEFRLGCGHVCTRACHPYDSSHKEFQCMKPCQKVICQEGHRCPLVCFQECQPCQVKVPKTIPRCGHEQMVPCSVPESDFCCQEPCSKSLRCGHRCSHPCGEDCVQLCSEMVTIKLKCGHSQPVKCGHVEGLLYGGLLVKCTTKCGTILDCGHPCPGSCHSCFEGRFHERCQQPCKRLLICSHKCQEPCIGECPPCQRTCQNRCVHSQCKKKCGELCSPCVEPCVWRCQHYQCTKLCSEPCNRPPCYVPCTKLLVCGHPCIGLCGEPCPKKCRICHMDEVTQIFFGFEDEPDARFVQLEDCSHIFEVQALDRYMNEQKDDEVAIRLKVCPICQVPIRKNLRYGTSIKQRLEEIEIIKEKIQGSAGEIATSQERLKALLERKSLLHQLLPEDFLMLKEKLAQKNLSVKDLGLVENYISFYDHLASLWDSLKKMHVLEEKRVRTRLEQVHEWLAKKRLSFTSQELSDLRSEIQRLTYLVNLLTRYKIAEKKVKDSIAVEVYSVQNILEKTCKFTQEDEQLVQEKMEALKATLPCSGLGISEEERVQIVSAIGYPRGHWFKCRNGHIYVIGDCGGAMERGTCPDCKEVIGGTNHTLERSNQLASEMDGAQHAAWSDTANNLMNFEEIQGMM

With AAUAAA, the Kd in the series with SF3B3 came to 669 nM; with PIP5K1A it was 467 nM.

On to CUGUCCU, for which the Kd with RPSA came to 187 nM.

Take UAUUUAU: the values for the Kd with MYEF2, with PRPF4 and with ZNFX1 were 2700 nM, 2640 nM and 374 nM, respectively.

As usually defined, the Kd is the concentration at which binding is half-saturated.

Source of the values: the supplement of paper PMC6379048.
